# Measured values: patent US20250188457A1, “COMPOSITIONS AND METHODS FOR THE TREATMENT OF GLIOBLASTOMA BY INHIBITION OF THE TFPI2-CD51-STAT6 SIGNALING AXIS” (Northwestern University, priority 2023, published 2025)
# What was measured:
# 005 GSC and CT2A tumors = assay: Survival of C57BL/6 mice implanted with 005 GSCs or CT2A cells; assay type: in vivo, mouse; details: anti-PD1 10 mg/kg i.p. on days 11, 14 and 17, MK-0429 30 mg/kg or AS1517499 10 mg/kg i.p. every other day
# Experimental: Female C57BL/6 (#0000664), nude mice (#007850), and B6.12952(C)-Stat6tm1Gru/J mice (STAT6-KO; #005977) at 6 weeks of age were purchased from the Jackson Laboratory. Mice were grouped by 5 animals and maintained in a pathogen-free IVC System (San Diego, CA) for a week before the experiment. All animal experiments were performed with the approval of the Institutional Animal Care and Use Committee (IACUC) at Northwestern University. The intracranial xenograft tumor models were established (Refs. 11, 61; incorporated by reference in their entireties). Ketamine (100 mg/kg) and xylazine (20 mg/kg) were used for anesthetizing mice through intraperitoneal injection. Then a dental drill was used to open a small hole in the skull 1.2 mm anterior and 3.0 mm lateral to the bregma. A total volume of […] cells in FBS-free DMEM was injected into the right caudate nucleus 3 mm below the surface of the brain using a […] Hamilton syringe with an unbeveled 30-gauge needle. Total three doses of 20 mg/kg meloxicam were administrated before and after surgery through subcutaneous injection. After cancer cell implantation, mice were monitored for recording survival. Mice with neurological deficits or moribund appearance were sacrificed. Following the transcardiac perfusion with PBS and 4% paraformaldehyde (PFA), brains were removed and fixed in 4% PFA, and were processed for paraffin-embedded blocks or cryosectioning.
# GSC23 and GSC262 cells = assay: Tumorsphere formation assay (GSC self-renewal); assay type: cell-based, human; details: GSC262 and GSC23; indicated concentrations
# Experimental: The tumorsphere formation assay was performed (Ref. 79; incorporated by reference in its entirety). GSCs were treated with different concentrations of recombinant TFPI2 protein for 24 hrs with or without inhibition of JNK or STAT3, or modified with TFPI21 KO, knockdown or overexpression. After treatment or genetic modifications, cells were centrifuged at 1500 rpm for 5 min and resuspended in the plain cell culture media without additional supplements. Cells were then seeded into a 96-wells plate at 100 cells/well. The number of tumorspheres in each well was imaged and quantified after 10 days.
# [1] = molecular target: T1, CD51 (integrin alpha V, ITGAV) on human microglia (HMC3 cell line, primary human microglia PrhMG) (human, UniProt P06756 31-1048); assay: IP-MS: membrane proteins of PrhMG incubated with TFPI2 recombinant protein, immunoprecipitated with TFPI2 antibody, LC-MS; CD51 is one of the enriched membrane protein candidates
# T1 construct: whole, on cells; Endogenous protein of human microglia; also called Integrin aV/CD51
# T1 sequence (P06756 31-1048): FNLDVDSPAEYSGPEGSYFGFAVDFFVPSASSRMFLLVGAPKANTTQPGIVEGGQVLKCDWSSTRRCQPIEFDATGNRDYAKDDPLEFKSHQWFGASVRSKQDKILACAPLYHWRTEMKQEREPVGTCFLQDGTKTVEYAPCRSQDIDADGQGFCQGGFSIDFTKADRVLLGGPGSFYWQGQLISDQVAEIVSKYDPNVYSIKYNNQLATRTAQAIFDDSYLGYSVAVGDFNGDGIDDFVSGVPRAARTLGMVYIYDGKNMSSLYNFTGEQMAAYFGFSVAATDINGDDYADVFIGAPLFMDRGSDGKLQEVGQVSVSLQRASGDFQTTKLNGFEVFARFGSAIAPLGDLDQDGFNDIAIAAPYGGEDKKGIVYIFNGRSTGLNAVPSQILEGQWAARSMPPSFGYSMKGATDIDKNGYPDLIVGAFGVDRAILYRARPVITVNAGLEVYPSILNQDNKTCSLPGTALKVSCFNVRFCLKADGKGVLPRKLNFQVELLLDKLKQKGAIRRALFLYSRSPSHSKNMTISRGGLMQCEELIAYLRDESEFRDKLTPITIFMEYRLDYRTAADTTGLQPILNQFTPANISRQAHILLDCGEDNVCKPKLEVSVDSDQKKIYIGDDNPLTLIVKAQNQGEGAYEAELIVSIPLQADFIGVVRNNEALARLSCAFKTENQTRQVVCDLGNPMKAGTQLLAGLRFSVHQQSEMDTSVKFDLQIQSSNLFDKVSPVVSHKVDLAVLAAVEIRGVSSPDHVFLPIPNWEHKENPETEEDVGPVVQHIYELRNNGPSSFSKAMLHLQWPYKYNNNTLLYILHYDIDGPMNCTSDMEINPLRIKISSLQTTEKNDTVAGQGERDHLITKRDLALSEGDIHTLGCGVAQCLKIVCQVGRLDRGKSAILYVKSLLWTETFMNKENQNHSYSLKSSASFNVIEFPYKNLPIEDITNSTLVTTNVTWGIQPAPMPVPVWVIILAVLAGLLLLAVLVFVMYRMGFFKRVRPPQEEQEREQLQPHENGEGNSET
# Experimental: Permeabilized cells were centrifuged for 15 min at 16,000 g to remove the supernatant containing cytosolic proteins. The cell pellets were then incubated with 0.5 ml solubilization buffer at 4° C. for 30 min with constant mixing. Solubilized membrane and membrane-associated proteins were isolated by centrifuging at 16,000 g for 15 min at 4° C. Extracted membrane-associated proteins were proceeded for IP-MS pull-down assay. A total of […] cell membrane lysate was incubated with […] TFPI2 antibody (Abcam, #ab186747) or IgG control (Cell Signaling Technology, #2729) for 12 hrs with gentle rotation at 4° C. […] Protein A/G PLUS-Agarose (#sc-2003, Santa Cruz Biotechnology) were mixed with each sample on ice. The lysate bead mixture was incubated at 4° C. under rotary agitation for 4 hrs. The tubes were centrifuged to remove supernatant. The beads were then washed in lysis buffer three times to remove non-specific binding. After removing wash buffer, the complex was washed with pre-urea wash buffer (50 mM Tris pH 8.5, 1 mM EGTA, 75 mM KCl) to remove all residual supernatant. […] IP pulled-down samples were analyzed by LC-MS/MS using a Dionex UltiMate 3000 Rapid Separation nanoLC coupled to the Orbitrap Elite Mass Spectrometer (Thermo Fisher Scientific Inc, San Jose, CA). […]
# [2] = tested on: GSC262, GSC23 and GSC20 cells; assay: Immunoblot for CD133 and SOX2 in GSCs; assay type: cell-based, human; details: TFPI2 recombinant protein at indicated concentrations for 24 hrs
# Experimental: The protein expression in cells was determined by western blotting analysis (Ref. 61; incorporated by reference in its entirety). Cells were homogenized in RIPA lysis buffer containing phosphatase/protease cocktail inhibitors (Cell Signaling Technology, #5870). The protein concentration was determined by BCA Protein Assay Kit (Thermo Fisher Scientific, #P123225). Protein solution was mixed with the Leammli sample buffer and heated at 95° C. before loading to SurePAGE gels (GenScript, #M00653). The gels were run at a constant voltage of 80 V and then transferred to 0.2 μm nitrocellulose membrane (Bio-Rad, #1620112) using the Trans-Blot Turbo system (Bio-Rad) with a preprogrammed standard protocol for 30 min. Nitrocellulose membrane was incubated with 5% dry milk to block any unspecific staining. […]
fold change in TFPI2 IP group versus control IgG group [1] [fold],Molecule,"survival of mice bearing 005 GSC and CT2A tumors, combination with anti-PD1 therapy (005 GSC and CT2A tumors)",GSC self-renewal (tumorspheres) upon TFPI2 recombinant protein (GSC23 and GSC262 cells),expression of stemness-associated factors CD133 and SOX2 [2]
,NC(=O)c1cnc(NCCc2ccc(O)c(Cl)c2)nc1NCc1ccccc1 [AS1517499],synergized,,
≥ 2,"TFPI2 recombinant protein (tissue factor pathway inhibitor 2; BioVision, #7481-10) (ligand, UniProt P48307 23-235, looked up, Bought recombinant protein added to microglia at 20 ng/ml; also called recombinant TFPI2; secreted TFPI2) DAAQEPTGNNAEICLLPLDYGPCRALLLRYYYDRYTQSCRQFLYGGCEGNANNFYTWEACDDACWRIEKVPKVCRLQVSVDDQCEGSTEKYFFNLSSMTCEKFFSGGCHRNRIENRFPDEATCMGFCAPKKIPSFCYSPKDEGLCSANVTRYYFNPRYRTCDAFTYTGCGGNDNNFVSREDCKRACAKALKKKKKMPKLRFASRIRKIRKKQF",,Enhanced,increased
